Test results as given in paper PMC11910552, “Regulation of acetyl-CoA biosynthesis via an intertwined acetyl-CoA synthetase/acetyltransferase complex” (Nature Communications, 2025).
Where a chain is given by its changes, count along the chain named. Each block holds one molecule with its values, some of them ahead of it.

B1: Acetyl-CoA synthetase AcsA (Bacillus subtilis) (enzyme)
chain: MNLKALPAIEGDHNLKNYEETYRHFDWAEAEKHFSWHETGKLNAAYEAIDRHAESFRKNKVALYYKDAKRDEKYTFKEMKEESNRAGNVLRRYGNVEKGDRVFIFMPRSPELYFIMLGAIKIGAIAGPLFEAFMEGAVKDRLENSEAKVVVTTPELLERIPVDKLPHLQHVFVVGGEAESGTNIINYDEAAKQESTRLDIEWMDKKDGFLLHYTSGSTGTPKGVLHVHEAMIQQYQTGKWVLDLKEEDIYWCTADPGWVTGTVYGIFAPWLNGATNVIVGGRFSPESWYGTIEQLGVNVWYSAPTAFRMLMGAGDEMAAKYDLTSLRHVLSVGEPLNPEVIRWGHKVFNKRIHDTWWMTETGSQLICNYPCMDIKPGSMGKPIPGVEAAIVDNQGNELPPYRMGNLAIKKGWPSMMHTIWNNPEKYESYFMPGGWYVSGDSAYMDEEGYFWFQGRVDDVIMTSGERVGPFEVESKLVEHPAIAEAGVIGKPDPVRGEIIKAFIALREGFEPSDKLKEEIRLFVKQGLAAHAAPREIEFKDKLPKTRSGKIMRRVLKAWELNLPAGDLSTMED
notes: AcsA, acetyl-CoA synthetase of Bacillus subtilis; gene amplified from genomic DNA of strain 3610; catalytic lysine K549; the gene came from strain 3610; Monomer and dimer seen by mass photometry; also called Ac-CoA synthetase; source: E. coli BL21(DE3), purified (HisTrap, SEC)
B2: GCN5-related N-acetyltransferase AcuA (Bacillus subtilis) (enzyme)
chain: MEHHKTYHSANIKTATGSLLIEGPVSPEDLAGYEFHKDLTAFRPPREQHEALVDIAGLPEGRIIIARDGRTIVGYVTYLYPDPLERWSEGNMEDLIELGAIEVAPDYRGCAVGKTLLTVSMMDEQMENYIVMTTEYYWHWDLKGMKKDVWEYRKIMEKMMNAGGLVWFATDEPEISSHPANCLMARIGKNVSQESIEQFDRLRFYHRYMY
B3: GST-AcuA_E102Q (enzyme, Bacillus subtilis)
chain: B2 chain with E102Q
notes: source: E. coli BL21(DE3), purified

How the values were obtained:
AcuA = target: T1, AcuA (Bacillus subtilis, UniProt P39065); assay: isothermal titration calorimetry, one binding site model
T1 construct: monomer 21 kDa by mass photometry

[1] = target: T2, Acetyl-CoA synthetase AcsA (Bacillus subtilis) (Bacillus subtilis) (UniProt P39062)
T2 sequence: B1 chain

purified protein = substrate: CC(=O)O; assay: purified protein; details: without AcuA; 1 mM CoA, ATP 2.5 mM or 2 mM, 0.1 mM DTT, room temperature
[2] = target: the molecule itself; assay: mass photometry; TwoMP mass photometer, SEC buffer, 37.5 nM final protein concentration; proteins alone or 37.5 nM AcsA with 37.5 nM AcuA
[3] = target: B1; assay: cell-based or functional assay
[4] = target: B1; assay: pull-down; 200 μg GST-tagged protein immobilised on GST-Sepharose beads in spin columns, 200 μg partner added in SEC buffer (20 mM HEPES-Na pH 7.5, 200 mM NaCl, 20 mM KCl, 20 mM MgCl2), 30 min, three washes, elution with 20 mM GSH, Coomassie-stained SDS-PAGE; without Ac-CoA (also with 1 mM ATP, 1 mM AMP or 130 μM CoA, or with AcuB and AcuC added); details: both partners purified

Kd (AcuA): 9.47 ± 0.51 µM
Molecule: CC(=O)SCCNC(=O)CCNC(=O)[C@H](O)C(C)(C)COP(=O)(O)OP(=O)(O)OC[C@H]1O[C@@H](n2cnc3c(N)ncnc32)[C@H](O)[C@@H]1OP(=O)(O)O [Ac-CoA]

AcsA activity (HPLC) with 0-1 mM AcuA C-terminus peptide; reduction of activity at 1 mM [1]: 90%
Molecule: RLRFYHRYMY [AcuA C-terminus peptide (201-…-210)]

Molecule: B1
Km (purified protein): 430 µM
Vmax (purified protein): 2.17 µmol/min/mg
stoichiometry N [2]: 2

Molecule: B2
Vmax of Ac-CoA production by AcsA (HPLC) at AcsA:AcuA ratios 1:0.5, 1:1, 1:2, 1:5: 1834 down to 390 nmol mg^−1 min^−1 (without AcuA 2167) [3]: 1830 nmol/mg/min

Molecule: B3
binding result [4]: binds
